Our source for the self-cleavage values is the RNAGym collection of RNA variant scans (doi:10.7554/elife.80360).

The labels stand for the following.
B1: Hairpin Ribozyme (parent)
chain: GUCCUCUUUCACGUGCGCGUGAAAGAGAGAAGUGAACCAGAGAAACACACGUUGUGGUAUAUUACCUGGUA

Variants of B1 are the subject of the data set. Nature of the data set: self-cleavage, relative activity (ratio to wild type); higher = more cleavage; co-transcriptional.
As for A24G G57A, the self-cleavage was 0.228.
The value for C10U A36U was 0.487; that for G27A A47G was 0.129.
With U14C G27C, the self-cleavage came out at 0.078.
The value for U7A C65G was 0.284.
The value for A28G C50A was 0.415; that for C4U A28U was 0.178.
For the variant U5A G40C, the self-cleavage was 0.159.
The value for G42U A59G was 0.172; that for A35G G69U was 0.285.
The figure for G15A U33G is 0.136.
Consider A11G A26G, for which the self-cleavage worked out at 0.751.
A24U A61C: the self-cleavage was determined as 0.0949.
The figure for A24G A35G is 0.797; for A26U A35G it is 0.786; for G29A A45U it is 0.0463.
For the variant A35U C65A, the self-cleavage came out at 0.625.
With C10G C50U, the self-cleavage turned out to be 0.344.
The value for G42A U60G was 0.157; that for C16A A31G was 0.536; that for G17A A24G was 0.824.
The figure for U20G U60A is 0.775; for U20G U55G it is 0.293.
The figure for A59G C66A is 0.228; for U14A U70A it is 0.863.
Consider C37A G68C, for which the self-cleavage stood at 0.254.
The figure for A26C A45C is 0.155; for A28U G34C it is 1.23; for C18U G51C it is 0.881.
In the case of G51U U58G, the self-cleavage stood at 0.797.
The value for A22U G29A was 0.13; that for C3G U67C was 0.104; that for U20C U67G was 0.336.
On to G54C A61C, for which the self-cleavage came out at 0.183.
For G17U U20C, the self-cleavage stood at 1.26.
The value for C3U U5C was 0.299.
Turning to A28C G69U, the self-cleavage came out at 0.0989.
For C3U U53C, the self-cleavage was determined as 0.672.
For the variant A26U A61U, the self-cleavage was 0.15.
The figure for U9C A26C is 0.426.
The figure for C38G U58G is 0.175; for A36G G54U it is 0.816.
The value for A61C C65A was 0.165.
Consider G13A U14C, for which the self-cleavage was determined as 0.855.
A31G A35C: the self-cleavage amounted to 0.6.
Turning to G34A U62C, the self-cleavage came to 0.38.
With A11G C48U, the self-cleavage worked out at 0.144.
With C12A A59U, the self-cleavage amounted to 0.176.
Turning to C10A C16A, the self-cleavage is 0.907.
The figure for U2G U33G is 0.171; for U2G U33C it is 0.0578.
Regarding U9A A44U, the self-cleavage was 0.109.
For A30G G69C, the self-cleavage was determined as 0.0841.
The figure for A26G G29A is 0.159; for U60C A64U it is 0.183.
The value for G17U U70C was 0.859; that for U7G A39C was 0.48.
The value for U62A A64G was 0.093; that for A49C U60G was 0.166; that for A43C G69U was 0.161.
As to C12U G68U, the self-cleavage was found to be 0.27.
Regarding U5G U14G, the self-cleavage came out at 0.152.
The value for G13C G17U was 0.492; that for G29C U62C was 0.113.
The figure for G32A A59C is 0.133; for G15A A71C it is 1.29.
The value for G57C A61U was 0.161; that for G1C G19A was 0.197; that for C10A U53A was 0.678.
For A35G U58A, the self-cleavage turned out to be 0.73.
As for A24G A64U, the self-cleavage amounted to 0.135.
The figure for C3A G15A is 0.524; for G1U U5C it is 0; for A22U G40U it is 0.115.
The figure for G51U U53C is 0.777; for G32C U60C it is 0.0463.
The value for U2C A11U was 0.197; that for C16A A26C was 0.488.
Regarding U33A U62G, the self-cleavage amounted to 0.174.
The value for A45U U63A was 0.148.
The value for A31C G56A was 0.148; that for U20A G32A was 0.18; that for U9C U52G was 0.74.
Take A49G U70A: the self-cleavage worked out at 0.377.
For U5G G13U, the self-cleavage worked out at 0.361.
For the variant U7A A23G, the self-cleavage came to 0.866.
With C16U A30G, the self-cleavage amounted to 0.157.
The figure for A28G A71G is 0.941; for A30U G69C it is 0.0465; for A61G G69A it is 0.16.
The figure for G29A A44C is 0.17.
With A36G G57U, the self-cleavage came to 0.317.
The figure for A43G U70C is 0.19; for C10G C65U it is 0.307.
The figure for A26G G34C is 1.01; for G1A U9G it is 0.293; for A44U A49G it is 0.0827.
The value for U60G G68U was 0.296.
As to A49U U52C, the self-cleavage is 0.202.
The value for U9C U55C was 0.134; that for A11U U67G was 0.287; that for G13U A39C was 0.498.
With U7C A36U, the self-cleavage was 0.466.
A41C U63G: the self-cleavage came out at 0.102.
The value for C16U U33G was 0.148.
The value for G25A A49G was 0.275; that for A22U G25U was 0.253; that for G40U U53C was 0.344.
For the variant G40C A41U, the self-cleavage is 0.13.
The figure for G40A C65U is 0.435; for U14A A47C it is 0.482; for A41U C48G it is 0.241.
The figure for U5C U20C is 0.673.
As to C48G U62G, the self-cleavage worked out at 0.107.
U7C G54A: the self-cleavage was 0.525.
With A44U U58G, the self-cleavage turned out to be 0.136.
In the case of A23U U52G, the self-cleavage was found to be 0.753.
The value for G57A U70G was 0.111; that for G19A G69C was 0.129.
The figure for C18A A36G is 0.972; for U2A U67C it is 0.0778; for G19U A22U it is 0.648.
As to U8A G15C, the self-cleavage was 0.954.
The value for U9A C16G was 0.511; that for C18U A39G was 0.375.
The value for G21C G68U was 0.289.
The figure for A31C C37U is 0.134.
Consider C6A U60G, for which the self-cleavage stood at 0.4.
As to C38U A44U, the self-cleavage was determined as 0.135.
On to C10U G29A, for which the self-cleavage amounted to 0.158.
The value for G40C A47U was 0.0303; that for A45C U70C was 0.241; that for C18G U58G was 0.89.
The value for G21A A28U was 0.719; that for G69C A71C was 0.609.
On to U7A A28U, for which the self-cleavage came out at 0.58.
The figure for U7C U8C is 0.52; for U7C U8A it is 0.615; for C6U U62G it is 0.102.
Consider A30C C37G, for which the self-cleavage is 0.277.
As for G40A A43G, the self-cleavage was found to be 0.18.
The figure for G32A U55A is 0.107; for C16A A35G it is 1.06; for C18A A35U it is 0.734.
Consider U33A U53C, for which the self-cleavage was 0.264.
For the variant A23C C50U, the self-cleavage was 0.373.
As for G25C G68U, the self-cleavage is 0.206.
As for G15C A22G, the self-cleavage came to 0.746.
G15C A22C: the self-cleavage was 0.846.
With U9C A30G, the self-cleavage came out at 0.336.
Take U33C A59U: the self-cleavage was found to be 0.128.
The value for U9A G17A was 0.695; that for A26C U58A was 0.623.
The value for G1C U33A was 0.0439; that for A22G C37G was 0.291; that for A28G A44C was 0.202.
In the case of C18G A47U, the self-cleavage worked out at 0.0785.
The value for G19U was 0.891; that for G19C was 0.85.
The figure for A47C C48U is 0.0858; for C6A A22U it is 0.352; for A24U G32A it is 0.15.
The figure for A11G G57U is 0.392; for C10A A47C it is 0.334; for C4G G68A it is 0.084.
Regarding G17C U52C, the self-cleavage amounted to 0.778.
In the case of C6A U20A, the self-cleavage came to 0.551.
